Our source for the Kd values is PMC4613500 (2015).

Data set [1] deals with the molecule itself. In words: SPR.
Data set [2] concerns the molecule itself. As to the kind of experiment: sedimentation velocity analytical ultracentrifugation.

What is called Kd is the free concentration of one partner at which half of the binding sites on the other are occupied at equilibrium, for simple one-to-one binding. A lower Kd goes with higher affinity.

B1: Chordin ∆C ∆C (C-terminally tolloid-cleaved fragment, lacking vWC4) (protein)
chain: AGPEPPVLPIRSEKEPLPVRGAAGCTFGGKVYALDETWHPDLGEPFGVMRCVLCACEAPQWGRRTRGPGRVSCKNIKPECPTPACGQPRQLPGHCCQTCPQERSSSERQPSGLSFEYPRDPEHRSYSDRGEPGAEERARGDGHTDFVALLTGPRSQAVARARVSLLRSSLRFSISYRRLDRPTRIRFSDSNGSVLFEHPAAPTQDGLVCGVWRAVPRLSLRLLRAEQLHVALVTLTHPSGEVWGPLIRHRALAAETFSAILTLEGPPQQGVGGITLLTLSDTEDSLHFLLLFRGLLEPRSGGLTQVPLRLQILHQGQLLRELQANVSAQEPGFAEVLPNLTVQEMDWLVLGELQMALEWAGRPGLRISGHIAARKSCDVLQSVLCGADALIPVQTGAAGSASLTLLGNGSLIYQVQVVGTSSEVVAMTLETKPQRRDQRTVLCHMAGLQPGGHTAVGICPGLGARGAHMLLQNELFLNVGTKDFPDGELRGHVAALPYCGHSARHDTLPVPLAGALVLPPVKSQAAGHAWLSLDTHCHLHYEVLLAGLGGSEQGTVTAHLLGPPGTPGPRRLLKGFYGSEAQGVVKDLEPELLRHLAKGMASLMITTKGSPRGELRGQVHIANQCEVGGLRLEAAGAEGVRALGAPDTASAAPPVVPGLPALAPAKPGGPGRPRDPNTCFFEGQQRPHGARWAPNYDPLCSLCTCQRRTVICDPVVCPPPSCPHPVQAPDQCCPVCPEKQDVRDLPGLPRSRDPGEGCYFDGDRSWRAAGTRWHPVVPPFGLIKCAVCTCKGGTGEVHCEKVQCPRLACAQPVRVNPTDCCKQCPVGSGA
B1 had a Kd in data set [1] of 3.15 nM.

B2: Chordin (protein)
chain: AGPEPPVLPIRSEKEPLPVRGAAGCTFGGKVYALDETWHPDLGEPFGVMRCVLCACEAPQWGRRTRGPGRVSCKNIKPECPTPACGQPRQLPGHCCQTCPQERSSSERQPSGLSFEYPRDPEHRSYSDRGEPGAEERARGDGHTDFVALLTGPRSQAVARARVSLLRSSLRFSISYRRLDRPTRIRFSDSNGSVLFEHPAAPTQDGLVCGVWRAVPRLSLRLLRAEQLHVALVTLTHPSGEVWGPLIRHRALAAETFSAILTLEGPPQQGVGGITLLTLSDTEDSLHFLLLFRGLLEPRSGGLTQVPLRLQILHQGQLLRELQANVSAQEPGFAEVLPNLTVQEMDWLVLGELQMALEWAGRPGLRISGHIAARKSCDVLQSVLCGADALIPVQTGAAGSASLTLLGNGSLIYQVQVVGTSSEVVAMTLETKPQRRDQRTVLCHMAGLQPGGHTAVGICPGLGARGAHMLLQNELFLNVGTKDFPDGELRGHVAALPYCGHSARHDTLPVPLAGALVLPPVKSQAAGHAWLSLDTHCHLHYEVLLAGLGGSEQGTVTAHLLGPPGTPGPRRLLKGFYGSEAQGVVKDLEPELLRHLAKGMASLMITTKGSPRGELRGQVHIANQCEVGGLRLEAAGAEGVRALGAPDTASAAPPVVPGLPALAPAKPGGPGRPRDPNTCFFEGQQRPHGARWAPNYDPLCSLCTCQRRTVICDPVVCPPPSCPHPVQAPDQCCPVCPEKQDVRDLPGLPRSRDPGEGCYFDGDRSWRAAGTRWHPVVPPFGLIKCAVCTCKGGTGEVHCEKVQCPRLACAQPVRVNPTDCCKQCPVGSGAHPQLGDPMQADGPRGCRFAGQWFPESQSWHPSVPPFGEMSCITCRCGAGVPHCERDDCSLPLSCGSGKESRCCSRCTAHRRPAPETRTDPELEKEAEGS
For B2, the Kd in data set [2] was 3300 nM; in data set [1], 3.05 nM.
